Measurements reported in article PMC9688808, “Discovery of Novel Lin28 Inhibitors to Suppress Cancer Cell Stemness” (Cancers, 2022).

T1: Lin28B ZKD (Homo sapiens, UniProt Q6ZN17 110-174)
T1 sequence: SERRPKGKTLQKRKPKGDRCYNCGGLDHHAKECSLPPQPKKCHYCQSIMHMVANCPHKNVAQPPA


Assays:
[1] = molecular target: T1, Lin28B ZKD; assay: fluorescence polarization; 1 nM probe, 1 nM-50 uM protein; dose-dependent increase; EMSA: 20 mM HEPES-NaOH pH 7.4, 2 mM DTT, 3 mM MgCl2, 0.05% NP-40, protease inhibitors, 0.1 ug poly[dI:dC], 30 min 37 C (Methods 300 nM probe, legends 10 nM); FP: 30 uL, room temperature, 20 min, buffer not stated; conditions: protein: recombinant; tags: His
[2] = molecular target: T1, Lin28B ZKD; assay: competition; fluorescence polarization; 1 nM-50 uM unlabeled oligo vs 1 nM FAM probe, 10 uM protein; dose-dependent reduction; EMSA: 20 mM HEPES-NaOH pH 7.4, 2 mM DTT, 3 mM MgCl2, 0.05% NP-40, protease inhibitors, 0.1 ug poly[dI:dC], 30 min 37 C (Methods 300 nM probe, legends 10 nM); FP: 30 uL, room temperature, 20 min, buffer not stated; conditions: protein: recombinant; tags: His

Binder | binding result [1] | binding result [2]
UUAGGGCACGAGAUUUUGCCCACAAGGAGUU (structured_RNA) [FAM-Let-7 probe] | binds | 
UUAGGGCACGAGAUUUUGCCCACAAGGAGUU (structured_RNA) [non-labeled Let-7 oligo (FP competitor)] |  | binds
